Measured values published in patent US20230340143A1 (published 2023).

T1: Human CD39-L1 (human, UniProt Q9Y5L3 1-495)
T1 construct: Recombinant protein coated in ELISA; also called NTPDase2; ENTPD2
T1 sequence: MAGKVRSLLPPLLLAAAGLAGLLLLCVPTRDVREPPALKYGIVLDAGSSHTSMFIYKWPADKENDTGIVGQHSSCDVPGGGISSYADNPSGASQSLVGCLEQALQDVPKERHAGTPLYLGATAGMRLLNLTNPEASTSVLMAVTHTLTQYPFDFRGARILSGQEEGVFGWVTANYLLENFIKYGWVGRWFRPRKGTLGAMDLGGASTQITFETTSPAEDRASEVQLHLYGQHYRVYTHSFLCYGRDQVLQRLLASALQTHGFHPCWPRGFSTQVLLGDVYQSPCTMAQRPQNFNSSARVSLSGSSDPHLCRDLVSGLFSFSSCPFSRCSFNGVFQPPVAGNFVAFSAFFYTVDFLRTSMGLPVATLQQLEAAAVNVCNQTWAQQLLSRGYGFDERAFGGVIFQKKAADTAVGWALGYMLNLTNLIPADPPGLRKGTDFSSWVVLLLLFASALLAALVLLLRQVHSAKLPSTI

T2: CD39 mutant 5 (human, UniProt P49961 1-510)
T2 construct: Expressed on transfected HEK-293T cells; also called M5
T2 chain: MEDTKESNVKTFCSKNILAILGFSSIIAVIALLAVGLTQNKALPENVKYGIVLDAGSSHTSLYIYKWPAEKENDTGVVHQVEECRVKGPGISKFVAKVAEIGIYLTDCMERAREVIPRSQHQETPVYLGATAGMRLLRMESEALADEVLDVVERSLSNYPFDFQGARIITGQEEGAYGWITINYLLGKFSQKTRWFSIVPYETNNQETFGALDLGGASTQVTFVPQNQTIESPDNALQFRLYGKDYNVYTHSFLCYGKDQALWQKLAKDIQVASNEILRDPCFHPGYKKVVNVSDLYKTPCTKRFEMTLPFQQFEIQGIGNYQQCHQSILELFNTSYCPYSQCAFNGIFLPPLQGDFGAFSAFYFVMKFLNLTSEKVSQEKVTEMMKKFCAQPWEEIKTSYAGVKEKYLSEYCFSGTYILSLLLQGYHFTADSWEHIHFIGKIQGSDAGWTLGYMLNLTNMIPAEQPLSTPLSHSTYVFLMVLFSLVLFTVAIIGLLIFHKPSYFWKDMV

T3: human CD39 expressed at the cell surface (human, UniProt P49961 1-510)
T3 construct: On CHO transfectants, HEK-293T transfectants or endogenous on Ramos cells; also called huCD39; CHO-huCD39
T3 sequence: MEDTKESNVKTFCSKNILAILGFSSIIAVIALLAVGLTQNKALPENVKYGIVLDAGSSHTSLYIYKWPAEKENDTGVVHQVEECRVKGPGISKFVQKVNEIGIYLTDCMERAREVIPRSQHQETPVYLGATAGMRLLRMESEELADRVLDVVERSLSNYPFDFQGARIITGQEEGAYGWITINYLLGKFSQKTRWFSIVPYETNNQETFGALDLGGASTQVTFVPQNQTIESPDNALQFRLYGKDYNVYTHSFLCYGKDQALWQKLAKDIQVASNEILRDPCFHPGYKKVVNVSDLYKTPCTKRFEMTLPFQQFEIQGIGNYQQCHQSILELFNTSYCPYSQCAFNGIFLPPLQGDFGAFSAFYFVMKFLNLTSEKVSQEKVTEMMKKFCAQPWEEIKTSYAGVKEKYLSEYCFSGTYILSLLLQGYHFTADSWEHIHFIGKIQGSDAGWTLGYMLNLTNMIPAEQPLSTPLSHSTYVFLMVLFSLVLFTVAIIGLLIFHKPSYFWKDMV

T4: CD39 mutant 19 (human, UniProt P49961 1-510)
T4 construct: Expressed on transfected HEK-293T cells; also called M19
T4 chain: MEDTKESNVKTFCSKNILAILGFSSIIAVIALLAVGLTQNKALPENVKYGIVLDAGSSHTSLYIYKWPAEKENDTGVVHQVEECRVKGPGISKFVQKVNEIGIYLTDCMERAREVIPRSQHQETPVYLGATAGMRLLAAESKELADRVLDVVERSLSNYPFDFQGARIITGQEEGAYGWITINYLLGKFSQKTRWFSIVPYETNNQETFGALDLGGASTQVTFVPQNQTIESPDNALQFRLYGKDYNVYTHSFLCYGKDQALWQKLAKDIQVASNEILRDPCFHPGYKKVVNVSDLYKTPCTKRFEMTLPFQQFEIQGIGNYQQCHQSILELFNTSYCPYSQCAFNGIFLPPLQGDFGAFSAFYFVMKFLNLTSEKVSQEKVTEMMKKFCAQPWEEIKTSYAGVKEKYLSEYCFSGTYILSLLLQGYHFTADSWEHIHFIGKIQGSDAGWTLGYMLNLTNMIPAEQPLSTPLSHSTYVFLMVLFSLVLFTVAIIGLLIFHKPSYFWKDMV


Columns and labels:
[1] = target: T1, Human CD39-L1; test: ELISA, recombinant isoform coated
Procedure: Wells were washed in TBS Tween 20, and further saturated 2H at RT in TBS Blocking buffer. Dose range concentration of primary antibody was incubated in TBS blocking buffer for 2 h at RT. Wells were washed in TBS Tween 20. […] Optical density was measured on Enspire™ at OD=450.

[2] = target: T2, CD39 mutant 5; test: flow cytometry screen on HEK-293T cells expressing CD39 mutant 5
[3] = target: T3, human CD39 expressed at the cell surface; test: flow cytometry screen on CHO expressing huCD39 against wild type CHO
Procedure: In initial immunization protocols, the primary screen involved testing supernatant (SN) of growing clones by flow cytometry using wild type CHO and CHO expressing huCD39 cell lines. Cells were stained with 0.1 µM and 0.005 µM CFSE, respectively. […] For antibodies that bound huCD39, supernatants were then screened for inhibition of the enzymatic activity of soluble CD39 using the screening assay developed and described above (Methods).
In view of the absence of antibodies able to inhibit soluble CD39, a further immunization was carried out with a screening protocol designed to favor the generation of antibodies that bind the active site of CD39 as identified by the epitope of antibody BY40. Briefly, the primary screen involved testing supernatant (SN) of growing clones by flow cytometry using wild type CHO and CHO expressing huCD39 cell lines, as in the preceding immunizations, followed by screening for loss of binding Hek-293T cells expressing CD39 mutant 5, compared to wild-type CD39, as shown in Table 1. Mutant 5 has substitutions at residues Q96, N99, E143 and R147.

[4] = target: T2, CD39 mutant 5; test: flow cytometry on HEK-293T cells expressing mutant 5
Procedure: (§1) In order to define the epitopes of the further anti-CD39 antibodies of Example 5, they were tested for loss of binding to the panel of CD39 mutants as described in Example 1 and Table 1. Mutants were transfected in Hek-293T cells, as shown in the table 1, using numbering of SEQ ID NO: 1.Dose-ranges of test antibodies (10 - 2.5 - 0.625 - 0.1563 - 0.0391 - 0.0098 - 0.0024 - 0.0006 µg/ml) are tested on the 20 generated mutants by flow cytometry.

[5] = target: T4, CD39 mutant 19; test: flow cytometry on HEK-293T cells expressing mutant 19
Procedure: as §1

Row | Binder | binding result [1] | binding result [2] | binding result [3] | binding result [4] | binding result [5]
1 | antibody I-394 (antibody, V domains shown, Mouse hybridoma antibody; also produced with human IgG1 constant domains carrying L234A/L235E/G237A/A330S/P331S (Kabat EU) and a huCk constant domain) VH: EVQLQQSGPELVKPGASVKMSCKASGYTFTDYNMHWVKQSHGRTLEWIGYIVPLNGGSTFNQKFKGRATLTVNTSSRTAYMELRSLTSEDSAAYYCARGGTRFAYWGQGTLVTVSA VL: not shown | no binding | binds |  |  | 
2 | antibody I-396 (antibody, V domains shown, Hybridoma antibody purified on protein A) VH: EVQLQQSGAELVKPGASVKLSCIVSGFNIKDTYINWVKQRPEQGLEWIGRIDPANGNTKYDPKFQGKATMTSDTSSNTAYLHLSSLTSDDSAVYYCARWGYDDEEADYFDSWGQGTTLTVSS VL: not shown |  |  | binds | binds | binds

Next, values leading:

Row | binding result [1] | binding result [2] | binding result [3] | binding result [4] | binding result [5] | Binder
3 |  |  | binds |  |  | antibody I-395 (antibody, V domains shown, Hybridoma antibody purified on protein A) VH: EVQLQQSGPELVKPGASVRMSCKASGYTFTDYNMHWVKKNHGKGLEWIGYINPNNGGTTYNQKFKGKATLTVNTSSKTAYMELRSLTSEDSAVYYCTRGGTRFASWGQGTLVTVSA VL: not shown
4 |  |  | binds |  |  | antibody I-399 (antibody, V domains shown, Hybridoma antibody purified on protein A) VH: PVQLQQPGAEVVMPGASVKLSCKASGYTFTSFWMNWMRQRPGQGLEWIGEIDPSDFYTNSNQRFKGKATLTVDKSSSTAYMQLSSLTSEDSAVYFCARGDFGWYFDVWGTGTSVTVSS VL: EIVLTQSPTTMTSSPGEKITFTCSASSSINSNYLHWYQQKPGFSPKLLIYRTSNLASGVPTRFSGSGSGTSYSLTIGTMEAEDVATYYCQQGSSLPRTFGGGTKLEIK
